Measurements taken from patent US20040109887A1.

Legend:
[1] = molecular target: HXBc2 gp160?CT glycoprotein (HIV-1 isolate HXBc2; bovine rhodopsin) (UniProt P04578); experiment: FACS titration, anti-human IgG PE
[2] = molecular target: cleavage-defective YU2 gp160?CT glycoprotein (HIV-1 isolate YU2; bovine rhodopsin) (UniProt P35961); experiment: FACS on PLs, with against without sCD4 preincubation (without = 100%)
[3] = molecular target: Cleavage-competent YU2 gp160?CT glycoprotein (HIV-1 isolate YU2; bovine rhodopsin) (UniProt P35961); experiment: FACS on 293T cells, with against without sCD4 preincubation (without = 100%)
[4] = molecular target: cleavage-defective YU2 gp160?CT glycoprotein (HIV-1 isolate YU2; bovine rhodopsin) (UniProt P35961); experiment: FACS titration; saturation not reached with C11
[5] = molecular target: cleavage-defective YU2 gp160?CT glycoprotein (HIV-1 isolate YU2; bovine rhodopsin) (UniProt P35961); experiment: FACS titration on gp160?CT PLs / 293T cells, half-maximal binding

2F5 antibody
fold higher affinity on PLs with a reconstituted membrane than on beads without a membrane [1]: 10 fold

17b antibody
% increase of 17b binding after preincubation with sCD4 [2]: 46% | % increase of 17b binding after preincubation with sCD4 [3]: 63%

C11 antibody
fold lower affinity than IgG1b12 [4]: > 10 fold

IgG1b12 antibody
EC50 [5]: 6 nM
